Laboratory results as given in US20120252756A1, “Pharmaceutical Compositions and Methods for Treating, Controlling, Ameliorating, or Reversing Conditions of the Eye” (priority 2010, published 2012).

Experiments:
[1] = test system: Riken human corneal epithelial cell line (RT-HCEpiC); test: Monolayer scratch assay (corneal re-epithelization); format: cell-based; conditions: 10 ng/mL; 16 hours after wounding
Description: A single horizontal scratch was made to the HCEpiC monolayer. Cells were then incubated with PEG 3350 or HPMC 2910 in basal culture medium. Wound healing was calculated as the difference in the gap width between baseline measurements and after 16-hour incubation and is expressed as percentage gap closure. Bars represent the difference in the gap width between baseline measurements and after 16-hour incubation with treatment groups (n=3); lines on bars represent the standard error of the means. Raw data were analyzed with a one-way ANOVA followed by the Dunnett's Method test. * denotes statistical significance versus vehicle control; p<0.05.
We have developed an in vitro wound healing model using transformed human corneal epithelial cells insulted with a scratch to the monolayer and monitored for growth into the resulting cell-free gap. […]
Cells were examined and photographed after scratch and after 16 hours incubation with treatment to monitor closure of the cell-free gap using a light microscope. The percent closure was determined using the following equation. […]
Comparisons were made between treatment groups and the vehicle controls to determine the effect of the treatment on re-epithelization. […] All data was analyzed utilizing the statistical analysis software JMP (SAS Institute, Cary, N.C.).

[2] = test system: EGFR; test: Western blot of EGFR phosphorylation in RT-HCEpiC; format: cell-based, human; conditions: 10 ng/mL for 10 minutes
Description: (§1) Human corneal epithelial cells (HCEpiC) were treated with 10% PEG-3350 in serum-free media over the course of 16 hours in an attempt to understand the molecular mechanisms behind the observed positive effect on corneal re-epithelization. Cell lysates were collected and assessed for protein activation by western blot using antibodies targeting key phosphorylation sites.
(§2) FIG. 11 is a graphical representation of peak phosphorylation time points for pAkt, pERK, and pEGFR. […] Cell lysates were collected and assessed for protein activation by western blot using antibodies targeting key phosphorylation sites. […] Ratio of phosphorylated protein to total, non-phosphorylated was quantified by densitometry.
(§3) RT-HCEpiC cell suspensions (2.5×10^5 cells/ml) were prepared in complete medium with 10% Fetal Bovine Serum (“FBS”) and added to each well of a 6-well plate, 2.5 mL suspension per well. […] Cell lysates were assayed for protein concentration and evaluated for Akt, ERK, EGFR, and PI3K activation by Western blot.
(§4) Culture medium was aspirated from each well and cells were washed with cold, non-sterile PBS twice. […] Cell lysates were assayed for protein concentration and analyzed by western blot. […]
(§5) Western Blot: Analysis of Western blot band density in captured and stored digital images was done using the Quantity One software on the VersaDod MP 4000. Density of bands was quantified. […]

[3] = test system: Akt; test: Western blot of Akt phosphorylation in RT-HCEpiC; format: cell-based, human; conditions: 10 ng/mL for 10 minutes
Description: as §1, §2, §3, §4, §5

[4] = test system: ERK; test: Western blot of ERK phosphorylation in RT-HCEpiC; format: cell-based, human; conditions: 10 ng/mL for 10 minutes
Description: as §1, §2, §3, §4, §5

[5] = test system: PI3K; test: Western blot of PI3K phosphorylation in RT-HCEpiC; format: cell-based, human; conditions: 10 ng/mL for 10 minutes
Description: as §1
RT-HCEpiC cell suspensions (2.5×10^5 cells/ml) were prepared in complete medium with 10% Fetal Bovine Serum (“FBS”) and added to each well of a 6-well plate, 2.5 mL suspension per well. When cells reached confluence, they were serum starved overnight in basal DMEM/F12. Treatments were delivered in basal medium; treatments include control, 10 ng/mL HB-EGF (Heparin-bi-binding EGF-like growth factor) for 10 minutes; or 10% PEG-3350 for 10, 15, 20, 30 minutes, 1, 2, 4, 6, or 16 hours. Cell lysates were assayed for protein concentration and evaluated for Akt, ERK, EGFR, and PI3K activation by Western blot.
as §4, §5

B1: Heparin-binding EGF-like growth factor (protein, UniProt Q99075 63-148, looked up)
Heparin-binding EGF-like …: DLQEADLDLLRVTLSSKPQALATPNKEEHGKRKKKGKGLGKKRDPCLRKYKDFCIHGECKYVKELRAPSCICHPGYHGERCHGLSL
notes: growth factor used as positive assay control
corneal re-epithelization (percent gap closure) versus vehicle control [1]: significantly increased
phosphorylation of EGFR [2]: substantially increased
phosphorylation of Akt [3]: substantially increased
phosphorylation of ERK [4]: substantially increased
pPI3K [5]: no effect
